From KR20120135868A (dated 2012) come the findings set out here.

Changes are numbered by the printed parent chain.

In the experiment the target is T1, 인간 FcεRI의 α 서브유니트(FcεRIα)의 가용성 단편 (human, UniProt P12319 26-205, limits assumed).
T1 construct: domain: 가용성 단편 (soluble fragment); also called soluble sFcεRI; sFcεRI
T1 sequence (looked up): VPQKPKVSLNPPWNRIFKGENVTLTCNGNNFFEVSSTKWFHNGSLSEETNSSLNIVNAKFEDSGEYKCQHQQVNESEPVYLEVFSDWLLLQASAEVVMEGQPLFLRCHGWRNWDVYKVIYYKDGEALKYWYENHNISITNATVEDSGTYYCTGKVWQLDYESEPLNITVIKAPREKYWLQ
In words: phage ELISA, scFv on phage, selected after panning on coated FcεRI.

B1: NPB 314 scFv (scFv, V domains shown)
VH: EVQLVQSGAEVKKPGESLKISCKGSGYTFTKYWIGWVRQMPGKGLEWMGIIYPGDSDTTYSPSFQGQVTISADKSISTAYLQWSSLKASDTAMYYCAKDNPFTGSFDIWGQGTMVTVSS
VL: QSALTQPASMSGFPGQSITISCTGTRDDVGNYDLVSWYQQQPAKAPKLLIYEDNKRPSGVSSRFSGSKSGSTASLTISGLQTEDEADYYCCSYAGDYTYVFGTGTKVTVL
Regarding B1, the binding result is “binds”.

B2: NPB 307 scFv (scFv, V domains shown)
VH: B1 VH with P14S, S25F, T28R, K31S, T59R, Q111L
VL: QSALTQPRSVSGSPGQSVTISCTGTSNDVGGYTYVSWYQQHPGKAPKLMIYDVSKRPSGVPDRFSGSKSGNTASLTISGLQAEDEADYYCSSYAGSYTWVFGGGTKLTVL
As to B2, the binding result is “binds”.

B3: NPB 308 scFv (scFv, V domains shown)
VH: B1 VH
VL: B2 VL
On to B3, for which the binding result was “binds”.

B4: NPB 302 scFv (scFv, V domains shown)
VH: EVQLVESGAEVKKPGSSVKVSCKASGGTFSSYAISWVRQAPGQGLEWMGRIIPILGIANYAQKFQGRVTITADKSTSTAYMELSSLRSEDTAVYYCARVNPFGYYYAMDVWGQGTTVTVSS
VL: QSVLTQPPSASGTPGQRVTISCSGSTSNIGGNSVNWYQQLPGAAPKLLIYANIQRPSGVPDRFSGSKSGTSASLAISGLQSEDEADYYCASWDDSRNGYVFGTGTKVTVL
As for B4, the binding result is given as “binds”.

B5: NPB 313 scFv (scFv, V domains shown)
VH: B4 VH with E6Q
VL: DIQMTQSPSSVSASVGDRVTIPCRASQGISSWLAWYQQKPGKAPKLLIYAASNLQSGVPSRFSGSGSGTDFTLTISSLQPEDSATYYCQQTDSFPLTFGGGTKVEIK
As for B5, the binding result is “binds”.

B6: NPB 312 scFv (scFv, V domains shown)
VH: EVQLVQSGAEVKKPGESLKISCEGSGYRFSSYWIAWVRQKPGKGLEWMGIIYPYDSDTKYGPSFGGQVTISADKSINTAYLEWSSLKASDTAMYYCARLALIRGSIIFDYWGLGTLVTVSS
VL: QSALTQPRSVSGSPGQSVTISCTGSRGDVGGYDFVSWYRQYPGEAPQLIIYDVSGRPSGVPDRFSGSKSGNTASLTISGLQPEDEADYYCSSYAGSEIYVFGTGTKVTVL
On to B6, for which the binding result was “binds”.

B7: NPB 306 scFv (scFv, V domains shown)
VH: B6 VH
VL: QSVLTQPSSVSGAPGQRVTISCTGSSSNIGAGYDVHWYQHLPGTAPKLLIYGINIRPSGVPDRFSGSKSDTSASLAITALQAEDEADYYCQSYDSSLRSVVFGGGTKLTVL
For B7, the binding result is “binds”.

B8: NPB 309 scFv (scFv, V domains shown)
VH: B6 VH
VL: QSVLTQPSSVSGAPGQRVTISCTGSSSNIGADYDVHWYQLVSGAAPKLLIYGYTNRPSGVPDRFSGSKSGTSASLVIAGLQAEDEADYYCQSYDSSLSEVVFGGGTKLTVL
As for B8, the binding result is “binds”.

B9: NPB 304 scFv (scFv, V domains shown)
VH: EVQLLESGGGLVQPGGSLRLSCAASGLAFSDYYMSWVRLAPGKGLEWVSVISPGSGSKYYADSVKGRFTISRDNSKNTLYLQMNSLRAEDTAVYYCARYVGGMMMKRDFYYAMDVWGQGTLVTVSS
VL: QSVLTQPPSASGTPGQRVTISCSGSSSNIGSNAVNWYQQLPGTAPKLLIYYDSHRPSEVPDRFSGSKSGTSASLAISGLRSEDEADYYCGTWDSSLSGYVFGGGTKLTVL
B9: the binding result is “binds”.

B10: NPB 305 scFv (scFv, V domains shown)
VH: B9 VH
VL: QSVLTQPPSASGTPGQRVTISCTGSSSNIGNNDVSWYQQLPGTAPKLLIYSNNQRPSGVPDRFSGSKSGTSASLAISGLRSGDEADYYCGTWDYSLSGYVFGGGTKLTVL
In the case of B10, the binding result was “binds”.

B11: NPB 303 scFv (scFv, V domains shown)
VH: EVQLVQSGAEVKKSGESLKISCKGFGYTFTRNWIGWVRQMPGKGLEWMGIIYPGDSDTRYSPSFQGQVTISADKSISTAYLQWSSLKASDTAMYYCARDVGNGDYGLDVWGQGTTVTVSS
VL: QSALTQPASVSGSPGQSITISCTGTSSDIGGYDFVSWYQQHPGKAPKLIIYDVTRRPSEISNRFSASKSGNTASLTISGLQAEDEADYYCSSYTSSSTPYVFGTGTKVTVL
Turning to B11, the binding result is reported as “binds”.
